Molecular target: ArdA protein from the conjugative transposon Tn916 (Enterococcus faecalis)
Assay: crystal structure

## ArdA protein from the conjugative transposon Tn916 (natural protein)
  stoichiometry N: 2
